T1: P8 polypeptide with site 7 (F) mutated to alanine (human)
T1 construct: also called P8 F7A
T1 peptide: RLLEMEAEERKRAAE

T2: P8 polypeptide with site 3 (L) mutated to alanine (human)
T2 construct: also called P8 L3A
T2 peptide: RLAEMEFEERKRAAE

T3: P8 polypeptide with site 10 (R) mutated to alanine (human)
T3 construct: also called P8 R10A
T3 peptide: RLLEMEFEEAKRAAE

T4: ITPRIPL1 P8 polypeptide (human)
T4 construct: also called human ITPRIPL1 P8 polypeptide; polypeptide segment P8
T4 peptide: RLLEMEFEERKRAAE

T5: P8 polypeptide with site 12 (R) mutated to alanine (human)
T5 construct: also called P8 R12A
T5 peptide: RLLEMEFEERKAAAE

T6: P8 polypeptide with site 15 (E) mutated to alanine (human)
T6 construct: also called P8 E15A
T6 peptide: RLLEMEFEERKRAAA

T7: P8 polypeptide with site 2 (L) mutated to alanine (human)
T7 construct: also called P8 L2A
T7 peptide: RALEMEFEERKRAAE

T8: P8 polypeptide with site 9 (E) mutated to alanine (human)
T8 construct: also called P8 E9A
T8 peptide: RLLEMEFEARKRAAE

T9: P8 polypeptide with site 6 (E) mutated to alanine (human)
T9 construct: also called P8 E6A
T9 peptide: RLLEMAFEERKRAAE

T10: P8 polypeptide with site 5 (M) mutated to alanine (human)
T10 construct: also called P8 M5A
T10 peptide: RLLEAEFEERKRAAE

T11: P8 polypeptide with site 4 (E) mutated to alanine (human)
T11 construct: also called P8 E4A
T11 peptide: RLLAMEFEERKRAAE

T12: P8 polypeptide with site 11 (K) mutated to alanine (human)
T12 construct: also called P8 K11A
T12 peptide: RLLEMEFEERARAAE

T13: P8 polypeptide with site 8 (E) mutated to alanine (human)
T13 construct: also called P8 E8A
T13 peptide: RLLEMEFAERKRAAE

T14: P8 polypeptide with site 1 (R) mutated to alanine (human)
T14 construct: also called P8 R1A
T14 peptide: ALLEMEFEERKRAAE

T15: NRP2 extracellular domain protein with hFc (Sino Biological) (UniProt O60462 21-864)
T15 chain: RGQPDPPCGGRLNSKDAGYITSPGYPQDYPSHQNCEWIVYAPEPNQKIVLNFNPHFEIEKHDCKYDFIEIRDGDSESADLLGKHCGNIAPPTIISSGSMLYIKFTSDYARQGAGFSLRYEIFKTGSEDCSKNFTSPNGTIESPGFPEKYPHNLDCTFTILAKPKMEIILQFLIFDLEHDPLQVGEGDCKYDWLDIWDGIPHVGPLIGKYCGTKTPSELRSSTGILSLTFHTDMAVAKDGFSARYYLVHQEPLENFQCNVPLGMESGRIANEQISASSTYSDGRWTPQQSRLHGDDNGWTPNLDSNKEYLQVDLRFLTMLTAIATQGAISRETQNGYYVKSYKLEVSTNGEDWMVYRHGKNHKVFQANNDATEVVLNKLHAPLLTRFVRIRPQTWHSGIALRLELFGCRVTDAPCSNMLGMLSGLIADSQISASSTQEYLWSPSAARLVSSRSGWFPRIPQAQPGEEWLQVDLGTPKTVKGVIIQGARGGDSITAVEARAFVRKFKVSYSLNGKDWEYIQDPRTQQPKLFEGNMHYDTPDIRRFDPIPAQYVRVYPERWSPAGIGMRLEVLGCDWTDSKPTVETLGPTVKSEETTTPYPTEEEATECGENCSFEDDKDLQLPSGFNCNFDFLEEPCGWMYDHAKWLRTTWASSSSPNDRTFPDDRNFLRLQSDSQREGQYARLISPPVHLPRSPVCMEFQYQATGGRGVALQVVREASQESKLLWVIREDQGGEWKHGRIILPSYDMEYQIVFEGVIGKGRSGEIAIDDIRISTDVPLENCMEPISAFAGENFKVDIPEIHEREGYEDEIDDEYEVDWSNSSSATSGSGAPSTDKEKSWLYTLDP

T16: CD3ε (Met1-Asp126) protein with hFc tag (Sino Biological) (UniProt P07766 22-126)
T16 chain: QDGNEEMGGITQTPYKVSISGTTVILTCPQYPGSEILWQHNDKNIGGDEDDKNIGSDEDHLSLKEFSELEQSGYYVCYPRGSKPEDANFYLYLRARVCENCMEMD

T17: CD3E-human Fc protein (Sino Biological) (UniProt P07766 23-126)
T17 chain: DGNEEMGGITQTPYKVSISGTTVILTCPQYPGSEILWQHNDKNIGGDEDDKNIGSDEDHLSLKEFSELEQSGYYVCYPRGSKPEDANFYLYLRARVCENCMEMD


Legend:
[1] = molecular target: T1, P8 polypeptide with site 7 (F) mutated …; assay: ELISA, peptide coated at 1 µg/ml
[2] = molecular target: T2, P8 polypeptide with site 3 (L) mutated …; assay: ELISA, peptide coated at 1 µg/ml
[3] = molecular target: T3, P8 polypeptide with site 10 (R) mutated …; assay: ELISA, peptide coated at 1 µg/ml
[4] = molecular target: T4, ITPRIPL1 P8 polypeptide; assay: ELISA, peptides coated at 1 µg/ml, antibody at 1 µg/ml
[5] = molecular target: T5, P8 polypeptide with site 12 (R) mutated …; assay: ELISA, peptide coated at 1 µg/ml, antibody at 1 µg/ml
[6] = molecular target: T6, P8 polypeptide with site 15 (E) mutated …; assay: as above
[7] = molecular target: T7, P8 polypeptide with site 2 (L) mutated …; assay: as above
[8] = molecular target: T8, P8 polypeptide with site 9 (E) mutated …; assay: as above
[9] = molecular target: T9, P8 polypeptide with site 6 (E) mutated …; assay: as above
[10] = molecular target: T10, P8 polypeptide with site 5 (M) mutated …; assay: as above
[11] = molecular target: T11, P8 polypeptide with site 4 (E) mutated …; assay: as above
[12] = molecular target: T12, P8 polypeptide with site 11 (K) mutated …; assay: as above
[13] = molecular target: T13, P8 polypeptide with site 8 (E) mutated …; assay: as above
[14] = molecular target: T14, P8 polypeptide with site 1 (R) mutated …; assay: as above
[15] = molecular target: T15, NRP2 extracellular domain protein with …; assay: ELISA
[16] = molecular target: T16, CD3ε (Met1-Asp126) protein with hFc tag …; assay: ELISA
[17] = molecular target: T18, HA-tagged CD3ε (expressed from pcDNA3.1 in transfected HCT116 cells) (human, UniProt P07766 23-207); assay: flow cytometry on HCT116-CD3ε cells, 1-4 µg/ml protein, anti-6x-His-FITC
T18 construct: whole, on cells; also called CD3ε-HA; CD3E-HA; not shown: HA tag

[18] = molecular target: T17, CD3E-human Fc protein (Sino Biological); assay: BLI (Octet)

Row | Binder | binding result [1] | binding result [2] | binding result [3] | binding result [4] | binding result [5] | binding result [6] | binding result [7] | binding result [8] | binding result [9] | binding result [10] | binding result [11] | binding result [12] | binding result [13] | binding result [14] | EC50 [15] [µg/mL] | EC50 [16] [µg/mL] | binding result [17] | Kd [18] [nM]
1 | monoclonal antibody 13B7A6H3 (antibody, mouse IgG1, kappa, V domains shown, Mouse hybridoma monoclonal; also called 13B7A6H3 monoclonal antibody) VH: QVQLQQSGPELVKPGASVRMSCKTSGYTFTDYVISWVKQRPGQGLEWIGEIFPRTGSTYYNENFKATATLTADKSSNTAYMQLSSLTSEDSAAYFCAFITSVDWAMEYWGQGTSVTVSS VL: DVVMTQTPLSLPVSLGDQASISCRSSESLVNSKGNTHLHWYLQKPGQSPKLLIYKVSNRFSGVPDRFSGSGSGTDFTLKISRVEAEDLGVYFCSQSTHAPYTFGGGTKLEIKR | no binding (tested: 1 µg/ml) | no binding (tested: 1 µg/ml) | no binding (tested: 1 µg/ml) | binds | binds | binds | binds | binds | binds | binds | binds | binds | binds | binds |  |  |  | 
2 | ITPRIPL1-RBD recombinant protein (human ITPRIPL1 extracellular domain, 25-103 amino acids, C-terminal 6x-His and Myc tags, Cusabio, from yeast) (ligand, also called IT1-RBD protein; ITPRIPL1-RBD-6x-His recombinant protein; not shown: 6x-His and Myc tags at the C terminus) HPLMVSDRMDLDTLARSRQLEKRMSEEMRLLEMEFEERKRAAEQRQKAENFWTGDTSSDQLVLGKKDMGWPFQADGQEG |  |  |  |  |  |  |  |  |  |  |  |  |  |  | 0.418 | 0.255 | binds | 318
